Like-named read-outs stand apart in the source and are kept apart here.
T1: G-CSFR on NFS-60 cells (murine myeloblastic cell line) (mouse, UniProt P40223 26-837)
T1 sequence (looked up): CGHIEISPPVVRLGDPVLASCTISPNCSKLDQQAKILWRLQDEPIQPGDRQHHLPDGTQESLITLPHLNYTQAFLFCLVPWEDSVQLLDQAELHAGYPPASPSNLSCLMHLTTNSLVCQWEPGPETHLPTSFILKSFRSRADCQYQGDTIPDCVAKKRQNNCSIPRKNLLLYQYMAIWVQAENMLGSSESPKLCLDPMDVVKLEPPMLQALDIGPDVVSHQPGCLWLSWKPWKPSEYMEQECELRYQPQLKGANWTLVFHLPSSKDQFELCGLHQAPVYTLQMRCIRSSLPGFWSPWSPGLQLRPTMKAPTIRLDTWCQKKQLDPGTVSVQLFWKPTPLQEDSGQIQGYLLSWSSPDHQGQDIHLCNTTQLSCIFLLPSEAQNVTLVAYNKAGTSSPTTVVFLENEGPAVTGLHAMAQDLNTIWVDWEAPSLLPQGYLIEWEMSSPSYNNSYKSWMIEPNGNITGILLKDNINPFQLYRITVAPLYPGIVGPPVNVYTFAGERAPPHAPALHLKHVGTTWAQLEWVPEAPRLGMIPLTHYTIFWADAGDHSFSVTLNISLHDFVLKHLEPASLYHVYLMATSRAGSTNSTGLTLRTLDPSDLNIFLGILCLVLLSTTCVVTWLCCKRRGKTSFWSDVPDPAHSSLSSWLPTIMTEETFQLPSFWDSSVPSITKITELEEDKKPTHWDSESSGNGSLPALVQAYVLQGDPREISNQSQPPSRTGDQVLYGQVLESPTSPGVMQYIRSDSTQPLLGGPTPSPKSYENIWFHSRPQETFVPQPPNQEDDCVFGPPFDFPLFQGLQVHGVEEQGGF

T2: G-CSF Receptor (G-CSFR) (R&D systems 381-GR-050/CF), recombinant human (human, UniProt Q99062 25-627, limits assumed)
T2 construct: Bought protein, amine-coupled to a CM5 chip; also called rhG-CSFR; human G-CSF receptor
T2 sequence (looked up): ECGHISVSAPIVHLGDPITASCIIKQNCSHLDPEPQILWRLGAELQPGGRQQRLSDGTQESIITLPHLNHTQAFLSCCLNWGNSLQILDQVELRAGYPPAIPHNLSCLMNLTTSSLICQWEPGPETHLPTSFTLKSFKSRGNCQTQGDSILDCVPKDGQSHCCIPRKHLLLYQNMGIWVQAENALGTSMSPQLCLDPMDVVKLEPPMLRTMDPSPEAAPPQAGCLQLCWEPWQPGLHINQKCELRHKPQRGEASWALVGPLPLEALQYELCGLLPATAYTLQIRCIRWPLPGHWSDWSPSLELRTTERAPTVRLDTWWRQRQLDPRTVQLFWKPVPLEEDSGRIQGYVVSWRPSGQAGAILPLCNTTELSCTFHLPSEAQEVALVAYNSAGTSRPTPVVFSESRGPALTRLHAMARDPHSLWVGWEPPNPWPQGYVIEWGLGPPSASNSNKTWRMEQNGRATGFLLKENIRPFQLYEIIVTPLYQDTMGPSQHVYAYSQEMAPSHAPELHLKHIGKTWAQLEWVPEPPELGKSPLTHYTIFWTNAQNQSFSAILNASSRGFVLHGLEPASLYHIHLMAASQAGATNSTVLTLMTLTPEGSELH

B1: Boskar_3 (designed binder)
chain: AALAAVLAEIYKGLAEYQARLQSLEGISPELGPALDALRLDVADFATTIAQAMEENKGPLPQSFLLKALEQIRKIQADAAALREKLAATYPSSQRAAAAVEIAAQLEAFLEKAYEILRHLAAA
B2: Moevan_t2 (designed binder)
chain: EAAAAARDESAYLKLQEQMRKIDADAAALSETRTIEELDTFKLDVADFVTTVVQLAEELEHRFGRNRRGRTEIYKIVKEVDRKLLDLTDAVLAKEKKGEDILNMVAEIKALLINIYKGGGGSSGGGGSSGGGGSSGGGGSSEAAAAARDESAYLKLQEQMRKIDADAAALSETRTIEELDTFKLDVADFVTTVVQLAEELEHRFGRNRRGRTEIYKIVKEVDRKLLDLTDAVLAKEKKGEDILNMVAEIKALLINIYK
notes: Tandem fusion of two Moevan copies joined by a 24 amino acid GS linker
B3: Disohair_2 (designed binder)
chain: MTSDYIIEQIQRKQEEARLKVEEQERKLEAVKEASKRGVSSDQLLNLILDLADIITTLIQIIEESNEAIKELIKNQ
notes: Expressed with an N-terminal hexa-His-tag and thrombin site
B4: Moevan (designed binder)
chain: MEAAAAARDESAYLKLQEQMRKIDADAAALSETRTIEELDTFKLDVADFVTTVVQLAEELEHRFGRNRRGRTEIYKIVKEVDRKLLDLTDAVLAKEKKGEDILNMVAEIKALLINIYK
notes: also called Movean
B5: Boskar_4 (designed binder)
chain: AALAAALAEIYKGLAEYQARLKSLEGISPELGPALDALRLDMADFATTMAQAMEEGLDSLPQSFLLKALEQIRKIQADAAALREKLAATYKGNDRAAAAVEIAAQLEAFLEKAYQILRHLAAA

What was measured:
[1] = molecular target: G-CSFR on NFS-60 cells (murine myeloblastic cell line) (mouse) (UniProt P40223); test: cell-based or functional assay
[2] = molecular target: T1, G-CSFR on NFS-60 cells (murine …); test: cell-based or functional assay
[3] = molecular target: T2, G-CSF Receptor (G-CSFR) (R&D systems …); test: SPR, Biacore X100, G-CSFR amine-coupled on CM5, 2nd order kinetics model
Method: (§1) Single-cycle kinetics experiments were performed on a Biacore X100 system (GE Healthcare Life Sciences). G-CSF Receptor (G-CSFR) (R&D systems 381-GR-050/CF) was diluted to 50 μg/ml in 10 mM acetate buffer pH 5.0 and immobilized on the surface of a CM5 sensor chip (GE Healthcare 29149604) using standard amine coupling chemistry. The designs and rhG-CSF (USP RS Filgrastim, Sigma-Aldrich 1270435) were diluted in running buffer (10 mM HEPES, 150 mM NaCl, 3.4 mM EDTA, 0.005% v/v Tween-20). Analyses were conducted at 25° C. at a flow rate of 30 μl/min. Five sequential 10-fold increasing concentrations of the sample solution (for the designs from 0.5 nM to 50 μM, and for rhG-CSF from 0.05 to 500 nM) were injected over the functionalized sensor chip surface for 180 s, followed by a 180 s dissociation with running buffer. At the end of each run, the sensor surface was regenerated with a 240 s injection of 10 mM glycine-HCl pH 2.0. Each experiment was performed two times for rhG-CSF, Boskar3, Boskar4, diSohair2, Moevan, and Moevan_t2. Association rate (ka), dissociation rate (kd), and equilibrium dissociation (Kd) constants were initially obtained by global fitting of the experimental reference-subtracted data to a 1:1 interaction model using the Biacore X100 evaluation software (v.2.0.1). To evaluate if a kinetics model that depends on double the analyte stoichiometry improves the goodness of fit to the data, the following rate integral was used: […]

[4] = molecular target: T2, G-CSF Receptor (G-CSFR) (R&D systems …); test: SPR, Biacore X100, G-CSFR amine-coupled on CM5, 2nd order kinetics model, second run
Method: (§2) To obtain a more detailed picture on the nature of the binding, the inventors fitted the highest concentration sensorgram curves using higher order kinetics models. […] While this higher-order interaction model better explains the data than a 1:1 binding model, a clear deviation remained for rhG-CSF sensorgrams.
(§3) Single-cycle kinetics experiments were performed on a Biacore X100 system (GE Healthcare Life Sciences). G-CSF Receptor (G-CSFR) (R&D systems 381-GR-050/CF) was diluted to 50 μg/ml in 10 mM acetate buffer pH 5.0 and immobilized on the surface of a CM5 sensor chip (GE Healthcare 29149604) using standard amine coupling chemistry. The designs and rhG-CSF (USP RS Filgrastim, Sigma-Aldrich 1270435) were diluted in running buffer (10 mM HEPES, 150 mM NaCl, 3.4 mM EDTA, 0.005% v/v Tween-20). Analyses were conducted at 25° C. at a flow rate of 30 μl/min. Five sequential 10-fold increasing concentrations of the sample solution (for the designs from 0.5 nM to 50 μM, and for rhG-CSF from 0.05 to 500 nM) were injected over the functionalized sensor chip surface for 180 s, followed by a 180 s dissociation with running buffer. At the end of each run, the sensor surface was regenerated with a 240 s injection of 10 mM glycine-HCl pH 2.0. Each experiment was performed two times for rhG-CSF, Boskar3, Boskar4, diSohair2, Moevan, and Moevan_t2. Association rate (ka), dissociation rate (kd), and equilibrium dissociation (Kd) constants were initially obtained by global fitting of the experimental reference-subtracted data to a 1:1 interaction model using the Biacore X100 evaluation software (v.2.0.1).

[5] = molecular target: T2, G-CSF Receptor (G-CSFR) (R&D systems …); test: SPR, Biacore X100 single-cycle kinetics, G-CSFR amine-coupled on CM5, 1:1 binding model
Method: as §1

[6] = molecular target: T2, G-CSF Receptor (G-CSFR) (R&D systems …); test: SPR, Biacore X100 single-cycle kinetics, G-CSFR amine-coupled on CM5, 1:1 binding model, second run
Method: as §1

[7] = molecular target: T2, G-CSF Receptor (G-CSFR) (R&D systems …); test: SPR, 1:1 binding, value for the two runs together as told in the text; 1:1 binding, injection dilution series
Method: as §2
as §3, with “Association rate (ka), dissociation rate (kd), and equilibrium dissociation (Kd) constants were initially obtained by global fitting of the experimental reference-subtracted data to a 1:1 interaction model using the Biacore X100 evaluation software (v.2.0.1).” left out

[8] = molecular target: T2, G-CSF Receptor (G-CSFR) (R&D systems …); test: SPR, second-order reaction model, value as told in the text; second-order reaction model, highest concentration sensorgram
Method: as §2, §3

[9] = molecular target: T1, G-CSFR on NFS-60 cells (murine …); test: cell-based or functional assay; remark: listed apart in the source
[10] = molecular target: T2, G-CSF Receptor (G-CSFR) (R&D systems …); test: SPR, Biacore X100 single-cycle kinetics, G-CSFR amine-coupled on CM5, 1:1 binding model; remark: listed apart in the source
Method: To test whether the grafted epitope residues mediate binding of the designs to the G-CSF receptor, the inventors also performed SPR measurements for the Moevan and diSohair2 initial design templates (Moevan_control and diSohair_control, respectively), and no binding was observed (FIG. 20C,F).
as §1

[11] = molecular target: T2, G-CSF Receptor (G-CSFR) (R&D systems …); test: SPR (Biacore), G-CSFR immobilised on the chip, Moevan_t2 2 nM - 32 nM as analyte, five traces with binding model fit [panel E]
[12] = molecular target: T2, G-CSF Receptor (G-CSFR) (R&D systems …); test: SPR (Biacore), G-CSFR immobilised on the chip, diSohair2 250 nM - 4000 nM as analyte, five traces with binding model fit [panel B]
[13] = molecular target: T2, G-CSF Receptor (G-CSFR) (R&D systems …); test: SPR (Biacore), G-CSFR immobilised on the chip, Moevan 2 nM - 32 nM as analyte, five traces with binding model fit [panel D]

Molecule	NFS-60 EC50 (ng/mL), proliferation of NFS-60 cells [2]	Kd [3]	koff [3]	kon [3]	Kd [4]	koff [4]	kon [4]	Kd [5]	koff [5]	kon [5]	Kd [6]	koff [6]	kon [6]	Kd [7]	Kd [8]	Kd [10]	koff [10]	kon [10]	other results
csf_2d9q|WILD_TYPE G-CSF (from UniProt P09919 37-204) (ligand)																			NFS-60 EC50 (ng/mL), proliferation of NFS-60 cells [1]: 0.055 ng/mL
B1	768 ng/mL	6000 nM	0.0047 s⁻¹	780 M⁻¹ s⁻¹	2600 nM	0.0058 s⁻¹	2200 M⁻¹ s⁻¹	12 nM	0.0015 s⁻¹	130000 M⁻¹ s⁻¹	16 nM	0.0019 s⁻¹	120000 M⁻¹ s⁻¹	14 nM	4400 nM				
B2																1.1 nM	0.0003 s⁻¹	310000 M⁻¹ s⁻¹	NFS-60 EC50 (ng/mL), proliferation of NFS-60 cells [9]: 47.1 ng/mL; Kd [11]: 1.2 nM; koff [11]: 0.00036 s⁻¹; kon [11]: 300000 M⁻¹ s⁻¹
B3	396 ng/mL															4500 nM	0.0095 s⁻¹	2100 M⁻¹ s⁻¹	Kd [12]: 4550 nM; koff [12]: 0.00949 s⁻¹; kon [12]: 2080 M⁻¹ s⁻¹
B4	356 ng/mL															21 nM	0.0059 s⁻¹	290000 M⁻¹ s⁻¹	Kd [13]: 21.7 nM; koff [13]: 0.00599 s⁻¹; kon [13]: 275000 M⁻¹ s⁻¹
B5	27 ng/mL	6400 nM	0.0095 s⁻¹	1500 M⁻¹ s⁻¹	5800 nM	0.008 s⁻¹	1400 M⁻¹ s⁻¹	8.5 nM	0.0045 s⁻¹	520000 M⁻¹ s⁻¹	1.7 nM	0.0015 s⁻¹	890000 M⁻¹ s⁻¹	5.1 nM	6100 nM				
